T1: cystic fibrosis transmembrane conductance regulator (CFTR) inhibitory factor (Cif) (Pseudomonas aeruginosa)
T1 chain: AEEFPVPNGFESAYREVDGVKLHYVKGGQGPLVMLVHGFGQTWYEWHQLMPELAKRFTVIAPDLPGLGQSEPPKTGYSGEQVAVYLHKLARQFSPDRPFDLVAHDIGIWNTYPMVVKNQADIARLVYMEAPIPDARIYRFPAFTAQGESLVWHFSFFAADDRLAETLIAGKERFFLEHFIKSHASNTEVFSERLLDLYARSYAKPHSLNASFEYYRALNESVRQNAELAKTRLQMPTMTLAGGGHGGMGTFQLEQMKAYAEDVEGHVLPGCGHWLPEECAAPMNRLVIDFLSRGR

B1: VHH CLONE 116 (VHH)
VHH: EVQLVESGGGLVQPGGSLRLSCTASGSILKIYTMDWYRQAPGKQRDLVATVSSRGDTDYTDSVKGRFTISRDDAKNTAYLQMSSLKPEDTAVYYCNFYIQSRTAPFNDYWGQGTQVTVSS
B2: VHH CLONE 103 (VHH)
VHH: EVQLMESAGGLVRPGGSLRLSCVASGSIGDIYSMGWYRQAPGKQRELVATVGAGGLTDYGDSVLGRFTISRDKTKGTVSLEMNSLKPEDTAVYYCNADVSIGPTGLRVYWGQGTQVTVSS
B3: VHH CLONE 320 (VHH)
VHH: DVQLQASGGGLVQPGGSLRLSCATSTSVFSITTLGWYRQAPGKQRELVASMKRGGDTNYADSVKGRFTISRDNARNTVFLQMNNLTTEDTAVYYCNAAILAYTGAVTNYWGQGTQVTVSS
B4: VHH CLONE 108 (VHH)
VHH: EVQLVESGGGLVQPGGSLRLSCEATGNFDDRGIGWFRQAPGKEREGIACITTRGRTHYAESVEGRFTISTDIANNAVYLQMNSLKPEDTAVYYCAKAIRLTTDRTQCVAFPGVSWGRGTQVTVSS
B5: VHH CLONE 205 (VHH)
VHH: DVQLQASGGGLVQPGGSLRLSCAATGSTDRIAFMGWYRQAPGKLRELVAGITSDGRTNYADDVDVSGRFTISRDSAKNMVYLQMNSLKPEDTAVYYCNADITLAMGGLRVYWGQGTQVTVSS
B6: VHH CLONE 213 (VHH)
VHH: EVQLVESVGGLVQPGGSLRLSCVASGNIGDIYTMGWYRQAPGKQRELVATVGDGGLTNFVDSVKGRFTISRDKSKGTVSLEMNSLKPEDTAVYYCNADVRIGPTGLRVYWGQGTQVTVSS
B7: VHH CLONE 302 (VHH)
VHH: QVKLQESGGGLVQPGGSLRLSCVASGNIGDIYTMGWYRQAPGKQRELVATVGDGGLTNFVDSVKGRFTISRDKSKGTVSLEMNSLKPEDTAVYYCNADVRIGPTGLRVYWGQGTQVTVSS
B8: VHH CLONE 220 (VHH)
VHH: EVQLVESGGGLVQPGGSLRLSCVASGNIGNIYTMGWYRQAPGKQRELVAAVGAGELTNYVDSVKGRFTISRDKSKGTVSLEMNSLKPEDTAVYYCNADVSIGPTGLRVYWGQGTQVTVSS

Key:
[1] = biological target: cystic fibrosis transmembrane conductance regulator (CFTR) inhibitory factor (Cif) (Pseudomonas aeruginosa); assay: cell-based or functional assay
[2] = biological target: T1, cystic fibrosis transmembrane …; assay: sandwich ELISA

Binder | IC50 [2] [µg/mL] | also measured
B1 | 0.0312 | % inhibition of Cif activity, [nab] tested 0.275 mg/mL [1]: 11%
B2 | 0.0168 | % inhibition of Cif activity, [nab] tested 0.5 mg/mL [1]: 2%
B3 | 0.0061 | % inhibition of Cif activity, [nab] tested 0.23 mg/mL [1]: 9%
B4 | 0.0098 | % inhibition of Cif activity, [nab] tested 0.275 mg/mL [1]: 19%
B5 | 0.0207 | % inhibition of Cif activity, [nab] tested 0.125 mg/mL [1]: 0%
B6 | 0.011 | % inhibition of Cif activity, [nab] tested 0.55 mg/mL [1]: 0%
B7 | 0.0172 | % inhibition of Cif activity, [nab] tested 0.5 mg/mL [1]: 0%
B8 | 0.0211 | % inhibition of Cif activity, [nab] tested 0.475 mg/mL [1]: 0%
